# Data as given in patent publication US20210206877A1 (Genentech, published 2021).
# Residue numbers refer to the chain shown, from its start.
# B1: 5930 (antibody, V domains shown)
# VH: QVQLVQSGAEVKKPGSSVKVSCKASGGTLSGYAISWVRQAPGQGLEWMGNIIPGFGTANYAQKSQGRVTITADESTSTAYMELSSLRSEDTAVYYCARSGGTRYGMLDVWGQGTMVTVSS
# VL: EIVMTQSPATLSVSPGERATLSCRASQSVGSNLAWYQQKPGQAPRLLIYGASTRATGIPARFSGSGSGTEFTLTISSLQSEDFAVYYCQQLYTWPPRTFGGGTKVEIK
# B2: 5932 (antibody, V domains shown)
# VH: QLQLQESGPGLVKPSETLSLTCTVSGGSISRGSYYWGWIRQPPGKGLEWIGMIYYSGSTWYNPSLKSRVTISVDTSKNQFSLKLSSVTAADTAVYYCARVGHGISYFDLWGRGTLVTVSS
# VL: B1 VL with M4L, V13L, G30S, N32Y, G50D, T53K, E70D, Q79E, S80P, L91V
# B3: 5984 (antibody, V domains shown)
# VH: B2 VH with R31S, G32S, M52N, W60Y, S67G, V100L, I104Y, S105N
# VL: EIVLTQSPATLSLSPGERATLSCRASQSVSSYLAWFQQKPGQAPRLLIYDASNRATGIPARFSGSGSGTDFTLTISSLEPEDFAVYYCQQVYVWPPRTFGGGTKVEIK
# B4: 6289 (antibody, V domains shown)
# VH: B2 VH with R31S, G32S, M52S, Y55R, W60Y, K66R, A98V
# VL: B3 VL with F36Y, V91S, Y92L, V93T
# B5: 6276 (antibody, V domains shown)
# VH: B1 VH with L29F, S30R, F55L, G56S, S64F, R103K
# VL: B1 VL with G30S, Y92I, T93L
# B6: 6273 (antibody, V domains shown)
# VH: B1 VH with L29F, A33G, S64F, R103K
# VL: B1 VL with G30S, L33I, Y92L, T93L
# B7: 5990 (antibody, V domains shown)
# VH: B2 VH with R31W, G32S, G37S, M52S, Y55R, S58R, W60Y, S105N
# VL: B3 VL with Q27R, S30N, F36Y, N53K, V93T
# B8: 6290 (antibody, V domains shown)
# VH: B2 VH with R31S, G32S, H102L, I104V
# VL: B3 VL with F36Y, N53K, V93T
# B9: 5985 (antibody, V domains shown)
# VH: B2 VH with R31S, G32S, M52N, W60Y, V100L, I104Y, S105N
# VL: B3 VL
# B10: 5982 (antibody, V domains shown)
# VH: B2 VH with R31S, G32S, M52N, W60Y, V100L, I104Y
# VL: B3 VL
# B11: 6296 (antibody, V domains shown)
# VH: B2 VH with R31S, G32S, M52N, W60Y, K66R, S67G, V100L, I104Y, S105N
# VL: B3 VL
# B12: 6285 (antibody, V domains shown)
# VH: B2 VH with I29T, R31S, G32S, M52S, Y55R, W60Y
# VL: B3 VL with F36Y, N53S, V91S, Y92L, V93T
# B13: 6280 (antibody, V domains shown)
# VH: B2 VH with I29T, R31S, G32S, M52S, Y55R, W60Y, L65F
# VL: B3 VL with F36Y, V91S, Y92L, V93T
# B14: 5933 (antibody, V domains shown)
# VH: B2 VH with I104V
# VL: B3 VL with F36Y, D50G, N53K, V93T
# B15: 6270 (antibody, V domains shown)
# VH: B1 VH with L29F, A33G, S64F, R103K
# VL: B1 VL with G30S, Y92L, T93L
# B16: 6279 (antibody, V domains shown)
# VH: B1 VH with L29F, S30R, S64F, R103K
# VL: B1 VL with G30S, Y92L, T93L
# B17: 5988 (antibody, V domains shown)
# VH: B1 VH
# VL: B1 VL with E1G
# B18: 6274 (antibody, V domains shown)
# VH: B1 VH with L29F, A33G, S64F, R103K
# VL: B1 VL with G30S, N32H, Y92I, T93L
# B19: 6271 (antibody, V domains shown)
# VH: B1 VH with L29I, A33G, S64F, R103K
# VL: B1 VL with G30S, Y92I, T93L
# B20: 5931 (antibody, V domains shown)
# VH: B2 VH with R31W, G32S, G37S, M52S, Y55R, S58R, W60Y, S67G, S105N
# VL: B3 VL with F36Y, N53K, V93T
# B21: 5986 (antibody, V domains shown)
# VH: B2 VH with R31S, G32S, M52Q, W60F, V100L, I104Y
# VL: B3 VL
# B22: 6272 (antibody, V domains shown)
# VH: B1 VH with L29F, A33G, S64F, R103K
# VL: B1 VL with G30S, Y92F, T93L
# B23: 6294 (antibody, V domains shown)
# VH: B2 VH with R31S, G32S, Y34H, I104V
# VL: B3 VL with F36Y, N53K, V93T
# B24: 6275 (antibody, V domains shown)
# VH: B1 VH with L29F, S30R, S64F, R103K
# VL: B1 VL with G30S, Y92F, T93L
# B25: 6293 (antibody, V domains shown)
# VH: B2 VH with R31S, G32S, K66R, I104V
# VL: B3 VL with F36Y, N53K, V93T
# B26: 6291 (antibody, V domains shown)
# VH: B2 VH with R31S, G32S, I104V
# VL: B3 VL with F36Y, D50G, N53K, V93T
# B27: 6297 (antibody, V domains shown)
# VH: B2 VH with S28P, R31S, G32S, M52N, W60Y, K66R, S67G, V100L, I104Y, S105N
# VL: B3 VL
# B28: 5983 (antibody, V domains shown)
# VH: B2 VH with R31S, G32S, M52N, W60Y, K66R, S81F, V100L, I104Y, S105N
# VL: B3 VL
# B29: 6288 (antibody, V domains shown)
# VH: B2 VH with I29T, R31S, G32S, M52S, Y55R, W60Y, K66R
# VL: B3 VL with F36Y, V91S, Y92L, V93T
# B30: 5987 (antibody, V domains shown)
# VH: B1 VH
# VL: B1 VL with G30S, Y92F, T93L
# Target: BACE1 endogenous to primary cortical neurons from E16.5 CD1 mice (mouse, UniProt P56818 46-501)
# Sequence (P56818 46-501): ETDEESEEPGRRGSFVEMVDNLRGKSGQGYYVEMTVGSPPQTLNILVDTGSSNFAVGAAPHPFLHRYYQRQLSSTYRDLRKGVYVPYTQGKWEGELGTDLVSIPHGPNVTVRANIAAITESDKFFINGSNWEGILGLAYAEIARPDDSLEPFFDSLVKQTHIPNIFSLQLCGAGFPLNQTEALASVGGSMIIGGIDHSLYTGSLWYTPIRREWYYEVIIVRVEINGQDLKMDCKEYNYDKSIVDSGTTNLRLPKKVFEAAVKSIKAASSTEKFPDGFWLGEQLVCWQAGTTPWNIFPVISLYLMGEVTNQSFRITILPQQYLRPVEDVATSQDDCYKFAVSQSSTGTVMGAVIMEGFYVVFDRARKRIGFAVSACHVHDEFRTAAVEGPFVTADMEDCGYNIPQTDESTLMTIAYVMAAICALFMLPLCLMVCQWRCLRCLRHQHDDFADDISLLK
# Test: cell-based or functional assay
row,"max % inhibition, Abeta x-40 in mouse cortical neurons [%]",Binder
1,74,B1
2,57,B2
3,70,B3
4,74,B4
5,81,B5
6,82,B6
7,61,B7
8,63,B8
9,73,B9
10,71,B10
11,62,B11
12,57,B12
13,65,B13
14,67,B14
15,85,B15
16,71,B16
17,75,B17
18,85,B18
19,83,B19
20,69,B20
21,67,B21
22,82,B22
23,59,B23
24,71,B24
25,75,B25
26,68,B26
27,63,B27
28,72,B28
29,67,B29
30,69,B30
